For the assay, the target named is native mVDAC1-GFP (mouse) (UniProt Q60932). Nature of the assay: cell-based or functional assay.
Sequence of native mVDAC1-GFP (mouse) (Q60932 14-296): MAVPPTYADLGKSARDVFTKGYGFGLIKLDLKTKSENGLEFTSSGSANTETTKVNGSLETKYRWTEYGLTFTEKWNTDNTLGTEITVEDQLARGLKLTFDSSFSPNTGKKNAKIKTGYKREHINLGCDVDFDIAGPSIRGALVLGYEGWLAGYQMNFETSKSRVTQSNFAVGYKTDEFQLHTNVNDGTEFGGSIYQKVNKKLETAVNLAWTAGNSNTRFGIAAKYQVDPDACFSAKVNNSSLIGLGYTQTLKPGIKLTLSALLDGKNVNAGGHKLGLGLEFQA

Consider “recombinant HK-I over-expressed in cells (pcDNA3.1-HisA-HK-I) (enzyme)”, for which the apoptotic cell death of cells over-expressing HK-I and mVDAC1-GFP was < 10%.

These data come from US20120214741A1.
